From patent publication US20120322725A1 (INDIANA UNIVERSITY RESEARCH AND TECHNOLOGY, published 2012)
Like-named read-outs stand apart in the source and are kept apart here. Bridge positions count the residues as written; N and C are the ends. Square brackets hold non-standard residues; d marks the D form. Ends that are not written are not given here. PLA = 3-phenyllactic acid (2-hydroxy-3-phenylpropanoic acid); Abu(4-SO3H) = N[C@@H](CCS(=O)(=O)O)C(=O)O; PhLac = O=C(O)[C@@H](O)Cc1ccccc1

Assays:
glucagon receptor [1] = biological target: T1, glucagon receptor (UniProt P47871 26-477, limits assumed); assay: cell-based or functional assay
T1 sequence (P47871 26-477 limits assumed): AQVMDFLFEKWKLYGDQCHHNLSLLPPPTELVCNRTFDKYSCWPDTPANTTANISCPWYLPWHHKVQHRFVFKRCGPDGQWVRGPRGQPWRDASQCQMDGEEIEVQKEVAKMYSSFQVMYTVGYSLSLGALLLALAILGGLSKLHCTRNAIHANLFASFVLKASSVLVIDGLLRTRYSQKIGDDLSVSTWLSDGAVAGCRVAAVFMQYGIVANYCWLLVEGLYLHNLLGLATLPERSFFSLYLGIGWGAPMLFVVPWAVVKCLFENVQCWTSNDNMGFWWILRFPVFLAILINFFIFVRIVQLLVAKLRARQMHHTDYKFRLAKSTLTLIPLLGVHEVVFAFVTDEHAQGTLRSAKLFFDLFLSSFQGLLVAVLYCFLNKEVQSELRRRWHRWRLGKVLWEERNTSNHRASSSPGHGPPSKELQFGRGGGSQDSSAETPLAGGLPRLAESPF

glucagon receptor [2] = biological target: T1, glucagon receptor; assay: column IC50(nM) beside the cAMP columns of Table H; taken as receptor binding
glucagon receptor [3] = biological target: T1, glucagon receptor; assay: cell-based or functional assay; remark: listed apart in the source
glucagon receptor [4] = biological target: T1, glucagon receptor; assay: cell-based or functional assay; remark: listed apart in the source
GLP-1 receptor [5] = biological target: T2, GLP-1 receptor (UniProt P43220 24-463, limits assumed); assay: cell-based or functional assay
glucagon receptor [6] = biological target: T1, glucagon receptor; assay: cell-based or functional assay; remark: listed apart in the source
GLP-1 receptor [7] = biological target: T2, GLP-1 receptor; assay: cell-based or functional assay; remark: listed apart in the source
glucagon receptor [8] = biological target: T1, glucagon receptor; assay: cell-based or functional assay; remark: listed apart in the source
glucagon receptor [9] = biological target: T1, glucagon receptor; assay: cell-based or functional assay; remark: listed apart in the source
glucagon receptor [10] = biological target: T1, glucagon receptor; assay: receptor binding, method not described
glucagon receptor [11] = biological target: T1, glucagon receptor; assay: receptor binding, method not described; remark: listed apart in the source
glucagon receptor [12] = biological target: T1, glucagon receptor; assay: cell-based or functional assay; remark: listed apart in the source
glucagon receptor [13] = biological target: T1, glucagon receptor; assay: receptor binding, method not described; remark: listed apart in the source
glucagon receptor [14] = biological target: T1, glucagon receptor; assay: receptor binding, method not described; remark: listed apart in the source
glucagon receptor [15] = biological target: T1, glucagon receptor; assay: receptor binding (named so for the same values in Table I), method not described

B1: [hCys^9(SO3H)]Glucagon(aa4-29)-NH2 (peptide)
peptide: GTFTSXYSKYLDSRRAQDFVQWLMNT
HELM: PEPTIDE1{G.T.F.T.S.[O=C([C@H](CCS(=O)(=O)O)N[*:1])[*:2]].Y.S.K.Y.L.D.S.R.R.A.Q.D.F.V.Q.W.L.M.N.T.[am]}$$$$V2.0; N-terminus assumed
SMILES: CSCC[C@H](NC(=O)[C@H](CC(C)C)NC(=O)[C@H](Cc1c[nH]c2ccccc12)NC(=O)[C@H](CCC(N)=O)NC(=O)[C@@H](NC(=O)[C@H](Cc1ccccc1)NC(=O)[C@H](CC(=O)O)NC(=O)[C@H](CCC(N)=O)NC(=O)[C@H](C)NC(=O)[C@H](CCCNC(=N)N)NC(=O)[C@H](CCCNC(=N)N)NC(=O)[C@H](CO)NC(=O)[C@H](CC(=O)O)NC(=O)[C@H](CC(C)C)NC(=O)[C@H](Cc1ccc(O)cc1)NC(=O)[C@H](CCCCN)NC(=O)[C@H](CO)NC(=O)[C@H](Cc1ccc(O)cc1)NC(=O)[C@H](CCS(=O)(=O)O)NC(=O)[C@H](CO)NC(=O)[C@@H](NC(=O)[C@H](Cc1ccccc1)NC(=O)[C@@H](NC(=O)CN)[C@@H](C)O)[C@@H](C)O)C(C)C)C(=O)N[C@@H](CC(N)=O)C(=O)N[C@H](C(N)=O)[C@@H](C)O
cAMP IC50 (glucagon receptor [1]): 68.4 nM
cAMP pA2 (glucagon receptor [1]): 7.22
IC50 (glucagon receptor [2]): 41.5 nM

{PLA}-FTSEYSKYLDSRRAQDFVQWLMNT-NH2 [[PLA^5, E^9]Glucagon(aa5-29)-NH2]
IC50(nM) (cAMP, inhibit 0.8 mM Glucagon) (glucagon receptor [3]): 328 nM

B2: [hCys^9(SO3H)]Glucagon(aa5-29)-NH2 (peptide)
peptide: TFTSXYSKYLDSRRAQDFVQWLMNT
HELM: PEPTIDE1{T.F.T.S.[O=C([C@H](CCS(=O)(=O)O)N[*:1])[*:2]].Y.S.K.Y.L.D.S.R.R.A.Q.D.F.V.Q.W.L.M.N.T.[am]}$$$$V2.0; N-terminus assumed
SMILES: CSCC[C@H](NC(=O)[C@H](CC(C)C)NC(=O)[C@H](Cc1c[nH]c2ccccc12)NC(=O)[C@H](CCC(N)=O)NC(=O)[C@@H](NC(=O)[C@H](Cc1ccccc1)NC(=O)[C@H](CC(=O)O)NC(=O)[C@H](CCC(N)=O)NC(=O)[C@H](C)NC(=O)[C@H](CCCNC(=N)N)NC(=O)[C@H](CCCNC(=N)N)NC(=O)[C@H](CO)NC(=O)[C@H](CC(=O)O)NC(=O)[C@H](CC(C)C)NC(=O)[C@H](Cc1ccc(O)cc1)NC(=O)[C@H](CCCCN)NC(=O)[C@H](CO)NC(=O)[C@H](Cc1ccc(O)cc1)NC(=O)[C@H](CCS(=O)(=O)O)NC(=O)[C@H](CO)NC(=O)[C@@H](NC(=O)[C@H](Cc1ccccc1)NC(=O)[C@@H](N)[C@@H](C)O)[C@@H](C)O)C(C)C)C(=O)N[C@@H](CC(N)=O)C(=O)N[C@H](C(N)=O)[C@@H](C)O
cAMP IC50 (glucagon receptor [1]): 98.3 nM
cAMP pA2 (glucagon receptor [1]): 6.77
IC50 (glucagon receptor [2]): 33.9 nM

B3: [E9, E16K20(lactam), D28]G(4~29) (peptide)
peptide: GTFTSEYSKYLDERRAKDFVQWLMDT
HELM: PEPTIDE1{G.T.F.T.S.E.Y.S.K.Y.L.D.E.R.R.A.K.D.F.V.Q.W.L.M.D.T.[am]}$PEPTIDE1,PEPTIDE1,13:R3-17:R3$$$V2.0; N-terminus assumed
SMILES: CSCC[C@H](NC(=O)[C@H](CC(C)C)NC(=O)[C@H](Cc1c[nH]c2ccccc12)NC(=O)[C@H](CCC(N)=O)NC(=O)[C@@H](NC(=O)[C@H](Cc1ccccc1)NC(=O)[C@H](CC(=O)O)NC(=O)[C@@H]1CCCCNC(=O)CC[C@H](NC(=O)[C@H](CC(=O)O)NC(=O)[C@H](CC(C)C)NC(=O)[C@H](Cc2ccc(O)cc2)NC(=O)[C@H](CCCCN)NC(=O)[C@H](CO)NC(=O)[C@H](Cc2ccc(O)cc2)NC(=O)[C@H](CCC(=O)O)NC(=O)[C@H](CO)NC(=O)[C@@H](NC(=O)[C@H](Cc2ccccc2)NC(=O)[C@@H](NC(=O)CN)[C@@H](C)O)[C@@H](C)O)C(=O)N[C@@H](CCCNC(=N)N)C(=O)N[C@@H](CCCNC(=N)N)C(=O)N[C@@H](C)C(=O)N1)C(C)C)C(=O)N[C@@H](CC(=O)O)C(=O)N[C@H](C(N)=O)[C@@H](C)O
Glucagon IC50 (glucagon receptor [4]): 10 to 30 nM
GLP-1 EC50 (GLP-1 receptor [5]): 151 nM

HSQGTFTSDYARYLDARRAREFIKWLVRGRG [ANK2 (Bayer peptide)]
GLP-1 EC50 (GLP-1 receptor [5]): 0.28 nM

B4: [PLA6, D9, K12E16(Lactam), D28]G(6-29) (peptide)
peptide: TSDYSKYLDERRAQDFVQWLMDT
modifications: not fully specified; PLA at position 6, N-terminal to the letters given; lactam between K12 and E16
Glucagon IC50 (glucagon receptor [4]): 63 nM
GLP-1 EC50 (GLP-1 receptor [5]): 177 nM
Glucagon IC50 (glucagon receptor [6]): 13 nM
GLP-1 EC50 (GLP-1 receptor [7]): 21 nM

{Ac-PLA}-TSEYSKYLDSRRAQDFVQWLMNT-NH2 [[Ac-PLA^6, E^9]Glucagon(aa6-29)-NH2]
IC50(nM) (cAMP, inhibit 0.8 mM Glucagon) (glucagon receptor [3]): 38.1 nM

GTFTSEYSKYLDSRRAQDFVQWLMNT-NH2 (also called peptide no) [[Glu^9]Glucagon(aa4-29)-NH2]
cAMP Inhibition IC50 (glucagon receptor [8]): 128 nM
cAMP pA2 (glucagon receptor [9]): 7.05

[PhLac]TSEYSKYLDSRRAQDFVQWLMNT-NH2 [[PLA6, E9]Glucagon(aa6-29)-NH2]
IC50(nM) (cAMP, inhibit 0.8 mM Glucagon) (glucagon receptor [3]): 64.8 nM
IC50 (glucagon receptor [10]): 12.3 nM
IC50 (glucagon receptor [11]): 12.3 nM

{PLA}-TSDYSKYLDERRAKDFVQWLMDT-NH2 (lactam 10-14) [[PLA6, D9, E16K20(lactam), D28]G(6-29)]
Glucagon IC50 (glucagon receptor [4]): 10 to 30 nM
Glucagon IC50 (glucagon receptor [6]): 6 nM
GLP-1 EC50 (GLP-1 receptor [7]): 4 nM

B5: [Glu^9]Glucagon(aa6-29)-NH2 (peptide)
peptide: FTSEYSKYLDSRRAQDFVQWLMNT-NH2
notes: also called [E^9]Glucagon(aa6-29)-NH2; peptide no
cAMP Inhibition IC50 (glucagon receptor [8]): 97 nM
cAMP (I/A)50 (glucagon receptor [9]): 486
cAMP pA2 (glucagon receptor [9]): 7.16
cAMP IC50 (glucagon receptor [12]): 97.2 nM
cAMP pA2 (glucagon receptor [12]): 7.16
IC50 (glucagon receptor [13]): 36 nM
IC50 (glucagon receptor [14]): 36.4 nM
IC50 (glucagon receptor [15]): 36.4 nM

B6: [hCys^9(SO3H)]Glucagon(aa6-29)-NH2 (peptide)
peptide: FTS[Abu(4-SO3H)]YSKYLDSRRAQDFVQWLMNT-NH2
notes: also called [hCys(SO3)9]Glucagon(aa6-29)-NH2
cAMP IC50 (glucagon receptor [1]): 133 nM
cAMP pA2 (glucagon receptor [1]): 7.16
cAMP IC50 (glucagon receptor [12]): 133 nM
cAMP pA2 (glucagon receptor [12]): 7.16
IC50 (glucagon receptor [14]): 59.1 nM
IC50 (glucagon receptor [2]): 59.1 nM
